From article PMC2568807

Biological target: ovine CRY1 (Cryptochrome 1), Flag-tagged (sheep)

attenuation of oCRY1 repression of oCLK/oBM1-induced oRev-erb alpha luciferase reporter transactivation in COS7 cells (100 or 200 ng Fbxl vector): 75%
Substance: ovine Fbxl21 full-length, Myc-tagged (from UniProt B3FL73 1-434) (natural protein)
